Source: FireProtDB (doi:10.1021/bi00252a018)

B1: Subtilisin inhibitor, P01006 (parent)
chain: MRNTGAGPSPSVSRPPPSAAPLSGAALAAPGDAPSALYAPSALVLTVGKGVSATTAAPERAVTLTCAPGPSGTHPAAGSACADLAAVGGDLNALTRGEDVMCPMVYDPVLLTVDGVWQGKRVSYERVFSNECEMNAHGSSVFAF

Variants of: B1
Conditions: Streptomyces albogriseolus; pH 2.9; Thermal; DSC; glycine 25 mM; reversible: yes (70-85%); structure 3SSI; whole UniProt chain shown

Row | Variant | Tm | change of melting temperature, mutant - wild type (higher = more stable)
1 | MRNTGAGPSPSVSRPPPSAAPLSGAALAAPGDAPSALYAPSALVLTVGKGVSATTAAPERAVTLTCAPGPSGTHPAAGSACADLAAVGGDLNALTRGEDVMCPMVYDPVLLTVNGVWQGKRVSYERVFSNECEMNAHGSSVFAF [D114N] | 42.3 °C | -2.17 °C

Same assay, conditions: Streptomyces albogriseolus; pH 2.94; Thermal; DSC; glycine 25 mM; reversible: yes (70-85%); structure 3SSI; whole UniProt chain shown

Row | Variant | Tm | change of melting temperature, mutant - wild type (higher = more stable)
2 | MRNTGAGPSPSVSRPPPSAAPLSGAALAAPGDAPSALYAPSALVLTVGKGVSATTAAPERAVTLTCAPGPSGTHPAAGSACADLAAVGGDLNALTRGEDVMCPMVYDPVLLTVNGVWQGKRVSYERVFSNECEMNAHGSSVFAF [D114N] | 44.8 °C | 0.88 °C

Same assay, conditions: Streptomyces albogriseolus; pH 2.98; Thermal; DSC; glycine 25 mM; reversible: yes (70-85%); structure 3SSI; whole UniProt chain shown

Row | Variant | Tm | change of melting temperature, mutant - wild type (higher = more stable)
3 | MRNTGAGPSPSVSRPPPSAAPLSGAALAAPGDAPSALYAPSALVLTVGKGVSATTAAPERAVTLTCAPGPSGTHPAAGSACADLAAVGGDLNALTRGEDVMCPMVYDPVLLTVNGVWQGKRVSYERVFSNECEMNAHGSSVFAF [D114N] | 45.1 °C | -0.2 °C

Same assay, conditions: Streptomyces albogriseolus; pH 3.04; Thermal; DSC; glycine 25 mM; reversible: yes (70-85%); structure 3SSI; whole UniProt chain shown

Row | Variant | Tm | change of melting temperature, mutant - wild type (higher = more stable)
4 | MRNTGAGPSPSVSRPPPSAAPLSGAALAAPGDAPSALYAPSALVLTVGKGVSATTAAPERAVTLTCAPGPSGTHPAAGSACADLAAVGGDLNALTRGEDVMCPMVYDPVLLTVNGVWQGKRVSYERVFSNECEMNAHGSSVFAF [D114N] | 46.3 °C | -1.29 °C

Same assay, conditions: Streptomyces albogriseolus; pH 3.07; Thermal; DSC; glycine 25 mM; reversible: yes (70-85%); structure 3SSI; whole UniProt chain shown

Row | Variant | Tm | change of melting temperature, mutant - wild type (higher = more stable)
5 | MRNTGAGPSPSVSRPPPSAAPLSGAALAAPGDAPSALYAPSALVLTVGKGVSATTAAPERAVTLTCAPGPSGTHPAAGSACADLAAVGGDLNALTRGEDVMCPMVYDPVLLTVNGVWQGKRVSYERVFSNECEMNAHGSSVFAF [D114N] | 47.3 °C | -1.43 °C

Same assay, conditions: Streptomyces albogriseolus; pH 3.15; Thermal; DSC; glycine 25 mM; reversible: yes (70-85%); structure 3SSI; whole UniProt chain shown

Row | Variant | Tm | change of melting temperature, mutant - wild type (higher = more stable)
6 | MRNTGAGPSPSVSRPPPSAAPLSGAALAAPGDAPSALYAPSALVLTVGKGVSATTAAPERAVTLTCAPGPSGTHPAAGSACADLAAVGGDLNALTRGEDVMCPMVYDPVLLTVNGVWQGKRVSYERVFSNECEMNAHGSSVFAF [D114N] | 50.2 °C | -1.03 °C

Same assay, conditions: Streptomyces albogriseolus; pH 3.16; Thermal; DSC; glycine 25 mM; reversible: yes (70-85%); structure 3SSI; whole UniProt chain shown

Row | Variant | Tm | change of melting temperature, mutant - wild type (higher = more stable)
7 | MRNTGAGPSPSVSRPPPSAAPLSGAALAAPGDAPSALYAPSALVLTVGKGVSATTAAPERAVTLTCAPGPSGTHPAAGSACADLAAVGGDLNALTRGEDVMCPMVYDPVLLTVNGVWQGKRVSYERVFSNECEMNAHGSSVFAF [D114N] | 49.9 °C | -2.28 °C

Same assay, conditions: Streptomyces albogriseolus; pH 3.19; Thermal; DSC; glycine 25 mM; reversible: yes (70-85%); structure 3SSI; whole UniProt chain shown

Row | Variant | Tm | change of melting temperature, mutant - wild type (higher = more stable)
8 | MRNTGAGPSPSVSRPPPSAAPLSGAALAAPGDAPSALYAPSALVLTVGKGVSATTAAPERAVTLTCAPGPSGTHPAAGSACADLAAVGGDLNALTRGEDVMCPMVYDPVLLTVNGVWQGKRVSYERVFSNECEMNAHGSSVFAF [D114N] | 51.4 °C | -1.95 °C

Same assay, conditions: Streptomyces albogriseolus; pH 3.2; Thermal; DSC; glycine 25 mM; reversible: yes (70-85%); structure 3SSI; whole UniProt chain shown

Row | Variant | Tm | change of melting temperature, mutant - wild type (higher = more stable)
9 | MRNTGAGPSPSVSRPPPSAAPLSGAALAAPGDAPSALYAPSALVLTVGKGVSATTAAPERAVTLTCAPGPSGTHPAAGSACADLAAVGGDLNALTRGEDVMCPMVYDPVLLTVNGVWQGKRVSYERVFSNECEMNAHGSSVFAF [D114N] | 51.3 °C | -2.3 °C

Same assay, conditions: Streptomyces albogriseolus; pH 3.21; Thermal; DSC; glycine 25 mM; reversible: yes (70-85%); structure 3SSI; whole UniProt chain shown

Row | Variant | Tm | change of melting temperature, mutant - wild type (higher = more stable)
10 | MRNTGAGPSPSVSRPPPSAAPLSGAALAAPGDAPSALYAPSALVLTVGKGVSATTAAPERAVTLTCAPGPSGTHPAAGSACADLAAVGGDLNALTRGEDVMCPMVYDPVLLTVNGVWQGKRVSYERVFSNECEMNAHGSSVFAF [D114N] | 51.3 °C | -2.07 °C

Same assay, conditions: Streptomyces albogriseolus; pH 7; Thermal; DSC; phosphate 25 mM; reversible: yes (70-85%); structure 3SSI; whole UniProt chain shown

Row | Variant | Tm | change of melting temperature, mutant - wild type (higher = more stable)
11 | MRNTGAGPSPSVSRPPPSAAPLSGAALAAPGDAPSALYAPSALVLTVGKGVSATTAAPERAVTLTCAPGPSGTHPAAGSACADLAAVGGDLNALTRGEDVMCPMVYDPVLLTVNGVWQGKRVSYERVFSNECEMNAHGSSVFAF [D114N] | 83.1 °C | 1.07 °C

Same assay, conditions: Streptomyces albogriseolus; pH 9.5; Thermal; DSC; glycine 25 mM; reversible: yes (70-85%); structure 3SSI; whole UniProt chain shown

Row | Variant | Tm | change of melting temperature, mutant - wild type (higher = more stable)
12 | MRNTGAGPSPSVSRPPPSAAPLSGAALAAPGDAPSALYAPSALVLTVGKGVSATTAAPERAVTLTCAPGPSGTHPAAGSACADLAAVGGDLNALTRGEDVMCPMVYDPVLLTVNGVWQGKRVSYERVFSNECEMNAHGSSVFAF [D114N] | 82.6 °C | 1.88 °C

Same assay, conditions: Streptomyces albogriseolus; pH 9.75; Thermal; DSC; glycine 25 mM; reversible: yes (70-85%); structure 3SSI; whole UniProt chain shown

Row | Variant | Tm | change of melting temperature, mutant - wild type (higher = more stable)
13 | MRNTGAGPSPSVSRPPPSAAPLSGAALAAPGDAPSALYAPSALVLTVGKGVSATTAAPERAVTLTCAPGPSGTHPAAGSACADLAAVGGDLNALTRGEDVMCPMVYDPVLLTVNGVWQGKRVSYERVFSNECEMNAHGSSVFAF [D114N] | 82.3 °C | 2.06 °C
